Reference: IntAct's records for PubMed 11168407

B1: Serine acetyltransferase 3, mitochondrial (Arabidopsis thaliana (Mouse-ear cress)), Q39218 (parent)
chain: MLPVTSRRHFTMSLYMLRSSSPHINHHSFLLPSFVSSKFKHHTLSPPPSPPPPPPMAACIDTCRTGKPQISPRDSSKHHDDESGFRYMNYFRYPDRSSFNGTQTKTLHTRPLLEDLDRDAEVDDVWAKIREEAKSDIAKEPIVSAYYHASIVSQRSLEAALANTLSVKLSNLNLPSNTLFDLFSGVLQGNPDIVESVKLDLLAVKERDPACISYVHCFLHFKGFLACQAHRIAHELWTQDRKILALLIQNRVSEAFAVDFHPGAKIGTGILLDHATAIVIGETAVVGNNVSILHNVTLGGTGKQCGDRHPKIGDGVLIGAGTCILGNITIGEGAKIGAGSVVLKDVPPRTTAVGNPARLLGGKDNPKTHDKIPGLTMDQTSHISEWSDYVI

Variants of: B1
Settings: with cyskm_arath OASC

Row | Variant | effect of a mutation on the interaction
1 | MLPVTSRRHFTMSLYMLRSSSPHINHHSFLLPSFVSSKFKHHTLSPPPSPPPPPPMAACIDTCRTGKPQISPRDSSKHHDDESGFRYMNYFRYPDRSSFNGTQTKTLHTRPLLEDLDRDAEVDDVWAKIREEAKSDIAKEPIVSAYYHASIVSQRSLEAALANTLSVKLSNLNLPSNTLFDLFSGVLQGNPDIVESVKLDLLAVKERDPACISYVHCFLHFKGFLACQAHRIAHELWTQDRKILALLIQNRVSEAFAVDFHPGAKIGTGILLDHATAIVIGATAVVGNNVSILHNVTLGGTGKQCGDRHPKIGDGVLIGAGTCILGNITIGEGAKIGAGSVVLKDVPPRTTAVGNPARLLGGKDNPKTHDKIPGLTMDQTSHISEWSDYVI [E282A] | decreasing interaction
2 | MLPVTSRRHFTMSLYMLRSSSPHINHHSFLLPSFVSSKFKHHTLSPPPSPPPPPPMAACIDTCRTGKPQISPRDSSKHHDDESGFRYMNYFRYPDRSSFNGTQTKTLHTRPLLEDLDRDAEVDDVWAKIREEAKSDIAKEPIVSAYYHASIVSQRSLEAALANTLSVKLSNLNLPSNTLFDLFSGVLQGNPDIVESVKLDLLAVKERDPACISYVHCFLHFKGFLACQAHRIAHELWTQDRKILALLIQNRVSEAFAVDFHPGAKIGTGILLDHATAIVIGETAVVGNNVSILHNVTLGGTGKQCGDRHPKIGDGVLIGAGTCILGNITIGEGAKIGAGSVVLKDVPPRTTAEGNPARLLGGKDNPKTHDKIPGLTMDQTSHISEWSDYVI [V353E] | decreasing interaction

Variants of: B1
Settings: with cyskm_arath OASC
Remark: another data set of the same source

Row | Variant | effect of a mutation on the interaction
3 | MLPVTSRRHFTMSLYMLRSSSPHINHHSFLLPSFVSSKFKHHTLSPPPSPPPPPPMAACIDTCRTGKPQISPRDSSKHHDDESGFRYMNYFRYPDRSSFNGTQTKTLHTRPLLEDLDRDAEVDDVWAKIREEAKSDIAKEPIVSAYYHASIVSQRSLEAALANTLSVKLSNLNLPSNTLFDLFSGVLQGNPDIVESVKLDLLAVKERDPACISYVHCFLHFKGFLACQAHRIAHELWTQDRKILALLIQNRVSEAFAVDFHPGAKIGTGILLDHATAIVIGETAVVGNNVSILHNVTLGGTGKQCGDRAPKIGDGVLIGAGTCILGNITIGEGAKIGAGSVVLKDVPPRTTAVGNPARLLGGKDNPKTHDKIPGLTMDQTSHISEWSDYVI [H309A] | increasing interaction
4 | MLPVTSRRHFTMSLYMLRSSSPHINHHSFLLPSFVSSKFKHHTLSPPPSPPPPPPMAACIDTCRTGKPQISPRDSSKHHDDESGFRYMNYFRYPDRSSFNGTQTKTLHTRPLLEDLDRDAEVDDVWAKIREEAKSDIAKEPIVSAYYHASIVSQRSLEAALANTLSVKLSNLNLPSNTLFDLFSGVLQGNPDIVESVKLDLLAVKERDPACISYVHCFLHFKGFLACQAHRIAHELWTQDRKILALLIQNRVSEAFAVDFHPGAKIGTGILLDHATAIVIGETAVVGNNVSILHNVTLGGTGKQCGDRHPKIGDGVLIGAGTCILGNITIGEGAKIGAGSVVLKDVPPRTTAAGNPARLLGGKDNPKTHDKIPGLTMDQTSHISEWSDYVI [V353A] | disrupting interaction
